The source of these data is US20250223354A1 (BIOTHEUS, published 2025).

Assay [1] concerns the target T1, cynomolgus PVRIG overexpressed on CHO cells (cynomolgus, UniProt A0A2K5WVV8 1-322).
T1 construct: whole, on cells; also called CHO-cynoPVRIG cells
T1 sequence: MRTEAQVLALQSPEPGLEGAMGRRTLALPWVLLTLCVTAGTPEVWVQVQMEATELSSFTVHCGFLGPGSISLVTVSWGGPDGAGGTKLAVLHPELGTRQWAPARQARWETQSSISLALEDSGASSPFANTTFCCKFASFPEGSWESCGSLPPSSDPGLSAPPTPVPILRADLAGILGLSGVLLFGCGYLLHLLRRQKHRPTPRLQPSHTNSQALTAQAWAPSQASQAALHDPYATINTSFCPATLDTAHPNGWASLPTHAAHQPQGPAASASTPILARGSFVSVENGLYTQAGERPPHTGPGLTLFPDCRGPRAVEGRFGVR
As to the kind of experiment: flow cytometry, CHO-cynoPVRIG cells. As to the method:
(§1) The overexpressing cells were expanded and adjusted to an appropriate cell density, and added to a 96-well flow cytometry plate. After centrifugation, the cells were added with a gradiently diluted sample to be tested, and incubated at 4° C. for 30 minutes. The cells were washed twice with PBS, and added with a fluorescent secondary antibody correspondingly diluted to an appropriate concentration, then incubated at 4° C. for 30 minutes, and washed twice with PBS. Cells were resuspended with PBS, and detected on a CytoFlex flow cytometer, and the corresponding MFI was calculated. Graphpad software was used for graphical analysis to obtain EC₅₀ values.
A general note: In flow cytometry, cells or beads pass a laser one at a time.

The target in the next assay is T2, human PVRIG-his protein (human, UniProt Q6DKI7 41-171, limits assumed).
T2 construct: not shown: his tag
T2 sequence: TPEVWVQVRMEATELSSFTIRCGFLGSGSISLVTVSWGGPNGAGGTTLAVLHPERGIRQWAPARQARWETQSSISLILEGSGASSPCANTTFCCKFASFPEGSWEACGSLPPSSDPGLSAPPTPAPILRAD
As to the kind of experiment: BLI (ForteBio), antibody on AHQ sensor, 100 nM antigen, monovalent, 1:1 model. As to the method:
The antibody-loaded sensor was incubated in 100 nM target antigen to the plateau phase, and then the sensor was transferred to an analysis buffer and incubated for at least 2 minutes for measuring dissociation rate. The kinetic analysis was performed using a 1:1 binding model.
(In BLI a coated tip is dipped into the sample, and binding shifts an interference pattern.)

Assay [2] deals with T3, biotin-labeled TIGIT protein (co-binding ELISA) (human, UniProt Q495A1 22-141, biotin-labeled (site not stated)).
T3 construct: Whole entry named; also called human TIGIT protein
T3 sequence (looked up): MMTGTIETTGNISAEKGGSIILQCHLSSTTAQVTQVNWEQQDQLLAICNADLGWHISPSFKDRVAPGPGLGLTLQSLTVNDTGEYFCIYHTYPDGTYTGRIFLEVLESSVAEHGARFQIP
As to the kind of experiment: co-binding (sandwich) ELISA: coated human PVRIG protein, antibody titrated, detected with biotin-labeled TIGIT protein 1 ug/mL and SA-HRP, absorbance 450 nm. On the technique in general: An ELISA detects its analyte on a solid surface through an enzyme-linked reagent.

In assay [3] the target is T4, mouse PVRIG overexpressed on CHO cells (mouse, UniProt A0A1B0GS01 1-234).
T4 construct: also called CHO-muPVRIG cells
T4 sequence: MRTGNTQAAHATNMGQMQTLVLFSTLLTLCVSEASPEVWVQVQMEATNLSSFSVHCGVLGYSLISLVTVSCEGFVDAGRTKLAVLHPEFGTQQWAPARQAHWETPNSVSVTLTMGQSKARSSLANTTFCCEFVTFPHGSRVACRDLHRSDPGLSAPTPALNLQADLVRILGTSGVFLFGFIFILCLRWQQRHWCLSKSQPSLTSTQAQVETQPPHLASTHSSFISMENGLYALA
As to the kind of experiment: flow cytometry, CHO-muPVRIG cells. The protocol:
as §1

Assay [4] deals with Biotin-labeled mouse PVRIG protein with Mouse IgG2a Fc tag (mouse). As to the kind of experiment: competition ELISA: biotin mouse PVRIG-mouse IgG2a Fc binding to coated mouse CD112-his. As to the method: The coating solution in the ELISA plate was discarded, and the ELISA plate was washed three times with 1×PBST and was blocked with 5% BSA/PBS at 200 μL/well for 2 hours at room temperature. […] The SA-HRP dilution was discarded, the ELISA plate was washed three times with 1×PBST, ELISA Chromogen Solution was added at 100 μL/well and incubated for 1-3 minutes at room temperature, ELISA stopping solution was added at 50 μL/well and the absorbance values were read at 450 nm.

Assay [5] deals with T5, human PVRIG protein with mouse IgG2a Fc tag (human; mouse, UniProt Q6DKI7 41-171, limits assumed).
T5 construct: Whole entry named; not shown: mouse IgG2a Fc tag
T5 sequence (looked up): T2 sequence
As to the kind of experiment: flow cytometry, competition: human PVRIG-mouse IgG2a Fc (1 ug/mL) binding to CHO-huCD112 cells. The protocol:
Specifically, CHO cells overexpressing human CD112 (CHO-huCD112 cells) were generated by transfection of the pCHO1.0 vector (purchased from Invitrogen) with cDNA encoding human CD112 cloned into the multiple cloning site (MCS), followed by pressure screening. […] APC-conjugated goat anti-mouse IgG antibody diluted 100-fold with PBS was added at 100 μL/well, incubated at 4° C. for 30 minutes and washed twice with PBS. Cells were resuspended with PBS at 100 μL/well, and detected on a CytoFlex flow cytometer, and the corresponding MFI was calculated.

Assay [6] deals with T6, cynomolgus monkey PVRIG-Fc protein (cynomolgus monkey, UniProt Q6DKI7 41-171 (human entry), limits assumed).
T6 construct: no signal peptide limits stated; Bivalent antigen; also called Cynomolgus PVRIG-hFc; not shown: human Fc (hFc)
T6 chain: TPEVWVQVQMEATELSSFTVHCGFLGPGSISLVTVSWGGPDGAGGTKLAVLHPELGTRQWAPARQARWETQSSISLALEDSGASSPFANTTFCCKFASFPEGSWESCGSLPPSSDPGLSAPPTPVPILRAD
As to the kind of experiment: BLI (ForteBio), antibody on AHQ sensor, 100 nM Fc antigen, bivalent, 1:1 model. As to the method: The antibody-loaded sensor was continued to be loaded in a high concentration of irrelevant intact antibody for 10 min, saturating the Fc-binding site on the AHQ sensor. The saturated sensor was incubated in 100 nM target antigen to the plateau phase, and then the sensor was transferred to an analysis buffer and incubated for at least 2 minutes for measuring dissociation rate. The kinetic analysis was performed using a 1:1 binding model.

Assay [7] deals with T7, human PVRIG expressed on cells (human, UniProt Q6DKI7 41-326).
T7 construct: whole, on cells; cDNA encoding human PVRIG in pCHO1.0 for CHO cells; also called CHO-huPVRIG cells
T7 sequence (looked up): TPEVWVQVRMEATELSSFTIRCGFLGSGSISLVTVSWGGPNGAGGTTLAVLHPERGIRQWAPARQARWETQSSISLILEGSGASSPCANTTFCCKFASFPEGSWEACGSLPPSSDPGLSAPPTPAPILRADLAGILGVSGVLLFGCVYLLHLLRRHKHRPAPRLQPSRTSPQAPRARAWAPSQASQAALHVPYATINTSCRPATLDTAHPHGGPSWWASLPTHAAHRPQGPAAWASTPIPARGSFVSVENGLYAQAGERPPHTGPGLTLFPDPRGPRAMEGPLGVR
As to the kind of experiment: flow cytometry, CHO-huPVRIG cells. The protocol:
as §1

B1: anti-PVRIG monoclonal antibody ADI-56127 (antibody, V domains shown)
VH: QVQLVQSGAEVKKPGSSVKVSCKASGGTESVDAISWVRQAPGQGLEWMGDIIPFFDTDYAQKFQGRVTITADESTSTAYMELSSLRSEDTAVYYCAREGGTSWTHFFDLWGRGTLVTVSS
VL: not shown
One may read the EC50 as the concentration giving half of the maximal effect. As a reminder, the IC50 is the concentration that gives 50% inhibition. Turning to B1, the EC50 stood at 0.844 nM in assay [1], 3.35 nM in assay [3] and 2.54 nM in assay [7]. The results for the Kd (in the assay with human PVRIG-his protein; in assay [6]) were 0.144 nM and 0.267 nM, respectively. Further, the binding result in assay [2] is reported as “no binding (tested: 100 nM)”. The values for the IC50 in assay [4] and in assay [5] were 0.261 nM and 1.06 nM, respectively.
